B1: Far upstream element-binding protein 1, residues 184 to 257; numbered along this chain, Q96AE4 (parent)
chain: GNAVQEIMIPASKAGLVIGKGGETIKQLQERAGVKMVMIQDGPQNTGADKPLRITGDPYKVQQAKEMVLELIRD

± gives the uncertainty stated by the source.

Variants of B1 are the subject of the data set. In words: abundance fitness (aPCA) (normalised: wild type 0, dead -1); higher = more abundant; growth selection in yeast, the domain comes from the species named. Particulars: Homo sapiens.
Regarding GNAVQEIMIPASKAGLVIGKGGETIKQAQERAGVKMVMIQDGPQNTGADKPLRITGDPYKVQQAKEMVLELIRD [L28A], the abundance fitness was -0.467 ± 0.037.

In the case of GNAVQEIMIPASKAGLVIGKGGETIKQEQERAGVKMVMIQDGPQNTGADKPLRITGDPYKVQQAKEMVLELIRD [L28E], the abundance fitness was -0.63 ± 0.046.

On to GNAVQEIMIPASKAGLVIGKGGETIKQQQERAGVKMVMIQDGPQNTGADKPLRITGDPYKVQQAKEMVLELIRD [L28Q], for which the abundance fitness is -0.612 ± 0.055.

With GNAVQEIMIPASKAGLVIGKGGETIKQSQERAGVKMVMIQDGPQNTGADKPLRITGDPYKVQQAKEMVLELIRD [L28S], the abundance fitness was -0.639 ± 0.041.

For the variant GNAVQEIMIPASKAGLVIGKGGETIKQRQERAGVKMVMIQDGPQNTGADKPLRITGDPYKVQQAKEMVLELIRD [L28R], the abundance fitness is -0.78 ± 0.036.

Take GNAVQEIMIPASKAGLVIGKGGETIKQWQERAGVKMVMIQDGPQNTGADKPLRITGDPYKVQQAKEMVLELIRD [L28W]: the abundance fitness is -0.284 ± 0.035.

On to GNAVQEIMIPASKAGLVIGKGGETIKQTQERAGVKMVMIQDGPQNTGADKPLRITGDPYKVQQAKEMVLELIRD [L28T], for which the abundance fitness is -0.315 ± 0.041.

Consider GNAVQEIMIPASKAGLVIGKGGETIKQMQERAGVKMVMIQDGPQNTGADKPLRITGDPYKVQQAKEMVLELIRD [L28M], for which the abundance fitness worked out at 0.026 ± 0.038.

As to GNAVQEIMIPASKAGLVIGKGGETIKQVQERAGVKMVMIQDGPQNTGADKPLRITGDPYKVQQAKEMVLELIRD [L28V], the abundance fitness was -0.155 ± 0.032.

GNAVQEIMIPASKAGLVIGKGGETIKQIQERAGVKMVMIQDGPQNTGADKPLRITGDPYKVQQAKEMVLELIRD [L28I]: the abundance fitness was -0.026 ± 0.058.

For GNAVQEIMIPASKAGLVIGKGGETIKQPQERAGVKMVMIQDGPQNTGADKPLRITGDPYKVQQAKEMVLELIRD [L28P], the abundance fitness is -0.77 ± 0.051.

For GNAVQEIMIPASKAGLVIGKGGETIKQDQERAGVKMVMIQDGPQNTGADKPLRITGDPYKVQQAKEMVLELIRD [L28D], the abundance fitness is -0.692 ± 0.061.

Consider GNAVQEIMIPASKAGLVIGKGGETIKQFQERAGVKMVMIQDGPQNTGADKPLRITGDPYKVQQAKEMVLELIRD [L28F], for which the abundance fitness is -0.225 ± 0.062.

For the variant GNAVQEIMIPASKAGLVIGKGGETIKQCQERAGVKMVMIQDGPQNTGADKPLRITGDPYKVQQAKEMVLELIRD [L28C], the abundance fitness was -0.399 ± 0.051.

For GNAVQEIMIPASKAGLVIGKGGETIKQGQERAGVKMVMIQDGPQNTGADKPLRITGDPYKVQQAKEMVLELIRD [L28G], the abundance fitness was -0.825 ± 0.035.

GNAVQEIMIPASKAGLVIGKGGETIKQYQERAGVKMVMIQDGPQNTGADKPLRITGDPYKVQQAKEMVLELIRD [L28Y]: the abundance fitness was -0.338 ± 0.055.

As for GNAVQEIMIPASKAGLVIGKGGETIKQNQERAGVKMVMIQDGPQNTGADKPLRITGDPYKVQQAKEMVLELIRD [L28N], the abundance fitness is -0.415 ± 0.057.

Regarding GNAVQEIMIPASKAGLVIGKGGETIKQKQERAGVKMVMIQDGPQNTGADKPLRITGDPYKVQQAKEMVLELIRD [L28K], the abundance fitness was -0.791 ± 0.059.

On to GNAVQEIMIPASKAGLVIGKGGETIKQLQETAGVKMVMIQDGPQNTGADKPLRITGDPYKVQQAKEMVLELIRD [R31T], for which the abundance fitness is -0.042 ± 0.035.

Regarding GNAVQEIMIPASKAGLVIGKGGETIKQLQEIAGVKMVMIQDGPQNTGADKPLRITGDPYKVQQAKEMVLELIRD [R31I], the abundance fitness was -0.12 ± 0.058.

In the case of GNAVQEIMIPASKAGLVIGKGGETIKQLQEGAGVKMVMIQDGPQNTGADKPLRITGDPYKVQQAKEMVLELIRD [R31G], the abundance fitness was -0.106 ± 0.028.

As to GNAVQEIMIPASKAGLVIGKGGETIKQLQEEAGVKMVMIQDGPQNTGADKPLRITGDPYKVQQAKEMVLELIRD [R31E], the abundance fitness was found to be 0 ± 0.033.

For the variant GNAVQEIMIPASKAGLVIGKGGETIKQLQELAGVKMVMIQDGPQNTGADKPLRITGDPYKVQQAKEMVLELIRD [R31L], the abundance fitness is -0.125 ± 0.031.

Consider GNAVQEIMIPASKAGLVIGKGGETIKQLQEWAGVKMVMIQDGPQNTGADKPLRITGDPYKVQQAKEMVLELIRD [R31W], for which the abundance fitness was -0.221 ± 0.037.

For the variant GNAVQEIMIPASKAGLVIGKGGETIKQLQEFAGVKMVMIQDGPQNTGADKPLRITGDPYKVQQAKEMVLELIRD [R31F], the abundance fitness is -0.155 ± 0.05.

Turning to GNAVQEIMIPASKAGLVIGKGGETIKQLQEAAGVKMVMIQDGPQNTGADKPLRITGDPYKVQQAKEMVLELIRD [R31A], the abundance fitness is -0.036 ± 0.032.

Regarding GNAVQEIMIPASKAGLVIGKGGETIKQLQEVAGVKMVMIQDGPQNTGADKPLRITGDPYKVQQAKEMVLELIRD [R31V], the abundance fitness was -0.113 ± 0.031.

As to GNAVQEIMIPASKAGLVIGKGGETIKQLQEHAGVKMVMIQDGPQNTGADKPLRITGDPYKVQQAKEMVLELIRD [R31H], the abundance fitness came to 0.032 ± 0.054.

Take GNAVQEIMIPASKAGLVIGKGGETIKQLQEYAGVKMVMIQDGPQNTGADKPLRITGDPYKVQQAKEMVLELIRD [R31Y]: the abundance fitness is -0.168 ± 0.056.

As for GNAVQEIMIPASKAGLVIGKGGETIKQLQEPAGVKMVMIQDGPQNTGADKPLRITGDPYKVQQAKEMVLELIRD [R31P], the abundance fitness is -0.484 ± 0.044.

In the case of GNAVQEIMIPASKAGLVIGKGGETIKQLQEDAGVKMVMIQDGPQNTGADKPLRITGDPYKVQQAKEMVLELIRD [R31D], the abundance fitness was -0.028 ± 0.04.

For GNAVQEIMIPASKAGLVIGKGGETIKQLQEKAGVKMVMIQDGPQNTGADKPLRITGDPYKVQQAKEMVLELIRD [R31K], the abundance fitness worked out at 0.016 ± 0.039.

For the variant GNAVQEIMIPASKAGLVIGKGGETIKQLQEMAGVKMVMIQDGPQNTGADKPLRITGDPYKVQQAKEMVLELIRD [R31M], the abundance fitness was -0.096 ± 0.039.

For GNAVQEIMIPASKAGLVIGKGGETIKQLQESAGVKMVMIQDGPQNTGADKPLRITGDPYKVQQAKEMVLELIRD [R31S], the abundance fitness is -0.008 ± 0.03.

In the case of GNAVQEIMIPASKAGLVIGKGGETIKQLQECAGVKMVMIQDGPQNTGADKPLRITGDPYKVQQAKEMVLELIRD [R31C], the abundance fitness was -0.084 ± 0.044.

For the variant GNAVQEIMIPASKAGLVIGKGGETIKQLQEQAGVKMVMIQDGPQNTGADKPLRITGDPYKVQQAKEMVLELIRD [R31Q], the abundance fitness was 0.017 ± 0.038.

Regarding GNAVQEIMIPASKAGLVIGKGGETIKQLQERDGVKMVMIQDGPQNTGADKPLRITGDPYKVQQAKEMVLELIRD [A32D], the abundance fitness is -0.412 ± 0.055.
